Assay [1] concerns the target PSGL-1 (P-选择蛋白糖蛋白配体-1) (human) (UniProt Q14242). Kind of assay: FACS on ML2 cells, KPL-1-PE alone.
Assay [2] has the same target. Kind of assay: FACS competition on ML2 cells, 200ng KPL-1 against IgG Y1-PE.

One substance from patent publication CN1678347A can be followed below.

Sequence of UniProt Q14242 (Q14242 42-412): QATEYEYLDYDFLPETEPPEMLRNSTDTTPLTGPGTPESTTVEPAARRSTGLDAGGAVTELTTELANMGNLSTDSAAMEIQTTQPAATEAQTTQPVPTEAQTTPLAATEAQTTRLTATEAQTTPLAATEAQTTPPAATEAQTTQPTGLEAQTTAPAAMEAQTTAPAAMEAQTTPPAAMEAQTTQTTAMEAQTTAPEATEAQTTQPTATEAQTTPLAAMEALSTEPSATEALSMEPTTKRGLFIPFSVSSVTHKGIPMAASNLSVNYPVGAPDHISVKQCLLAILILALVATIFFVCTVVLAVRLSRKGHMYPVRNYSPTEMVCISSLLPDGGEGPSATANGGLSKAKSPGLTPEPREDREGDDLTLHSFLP

In the case of KPL-1 (商业化供应的抗PSGL1小鼠单克隆抗体) (antibody), the 中值 (median fluorescence) in assay [1] stood at 700. Moreover, in assay [2], the 中值 of IgG Y1-PE with competitor (median fluorescence) came to 2 and the 抑制百分比 stood at 100%.
